Measured values taken from patent US20250382359A1 (BYOMASS, published 2025).

T1: Cyno GDF15 Fc (cyno, UniProt G7PWZ3 193-308, limits assumed)
T1 construct: also called cyno GDF15-Fc fusion; not shown: Fc part
T1 sequence: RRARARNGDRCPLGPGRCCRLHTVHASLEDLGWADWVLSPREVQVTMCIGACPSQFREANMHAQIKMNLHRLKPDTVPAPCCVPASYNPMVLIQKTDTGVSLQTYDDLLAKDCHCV

T2: GDF15 (ligand used in the GFRAL/RET cell assays) (UniProt Q99988 197-308, limits assumed)
T2 sequence (looked up): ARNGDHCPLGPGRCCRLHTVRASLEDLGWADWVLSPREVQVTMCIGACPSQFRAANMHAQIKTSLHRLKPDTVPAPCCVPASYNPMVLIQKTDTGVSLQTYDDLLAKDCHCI

T3: Mouse GDF15 Fc (mouse, UniProt Q9Z0J7 189-303, limits assumed)
T3 construct: also called mouse GDF15-Fc fusion; not shown: Fc part
T3 sequence (looked up): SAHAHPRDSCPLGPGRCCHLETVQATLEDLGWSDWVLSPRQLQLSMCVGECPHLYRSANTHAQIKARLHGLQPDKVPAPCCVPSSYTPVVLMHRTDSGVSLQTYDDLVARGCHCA


What was measured:
[1] = target: T1, Cyno GDF15 Fc; experiment: BLI Octet; antigen on sensor, 100 nM Fab (monovalent)
[2] = target: T2, GDF15 (ligand used in the GFRAL/RET …); experiment: cell-based or functional assay
[3] = target: T3, Mouse GDF15 Fc; experiment: BLI Octet; antigen on sensor, 100 nM Fab (monovalent)

Binder | Kd [1] [pM] | GDF15 GFRAL RET pERK Fab IC50 pM [2] [pM] | Kd [3] [pM]
GDF15 antibody agent Clone B, Fab (Fab, V domains shown, Fab; CH1 and CL of the Fab not specified; also called Fab of Clone B) VH: QVQLQESGPGLVKPSQTLSLTCTVSGGSISSGGIYWTWIRQHPGKGLEWIGAIAYSGSTYYNPSLKSRVTISVDTSKNQFSLKLSSVTAADTAVYYCARGIEYQHFDYWGQGTLVTVSS VL: not shown | 349 | 30.9 | 
GDF15 antibody agent Clone A, Fab (Fab, V domains shown, Fab; CH1 and CL of the Fab not specified; also called Fab of Clone A) VH: QVQLQESGPGLVKPSQTLSLTCTVSGGSITSGGSYWSWIRQHPGKGLEWIGAIVYSGSTYYNPSLKSRVTISVDTSKNQFSLKLSSVTAADTAVYYCARGVEYQHFDYWGQGTLVTVSS VL: not shown | 536 | 26.5 | 
GDF15 antibody agent Clone C, Fab (Fab, V domains shown, Fab; CH1 and CL of the Fab not specified; also called Fab of Clone C) VH: QVQLQESGPGLVKPSQTLSLTCTVSGGSISSGGYYWSWIRQHPGKGLEWIGAIVYSGHTYYNPSLKSRVTISVDTSKNQFSLKLSSVTAADTAVYYCARGVEYQHFSLWGQGTLVTVSS VL: not shown | 360 | 36.8 | 156000
GDF15 antibody agent Clone D, Fab (Fab, V domains shown, Fab; CH1 and CL of the Fab not specified; also called Fab of Clone D) VH: QVQLQESGPGLVKPSQTLSLTCTVSGGSINSGGYYWTWIRQHPGKGLEWIGAIYYSGSTVYNPSLKSRVTISVDTSKNQFSLKLSSVTAADTAVYYCARGVEYQHFNEWGQGTLVTVSS VL: not shown | 562 | 27 | 157000
GDF15 antibody agent Clone Q, Fab (Fab, V domains shown, Fab; CH1 and CL of the Fab not specified; also called Fab of Clone Q) VH: QVQLQESGPGLVKPSQTLSLTCTVSGGSISSGGIYWTWIRQHPGKGLEWIGAIAYSGSTYYNPSLKSRVTISVDTSKNQFSLKLSSVTAADTAVYYCARGIEYQHFDYWGQGTLVTVSS VL: not shown | 327 |  | 204000
GDF15 antibody agent Clone R, Fab (Fab, V domains shown, Fab; CH1 and CL of the Fab not specified; also called Fab of Clone R) VH: QVQLQESGPGLVKPSQTLSLTCTVSGGSISSGGIYWTWIRQHPGKGLEWIGAIAYSGSTYYNPSLESRVTISVDTSKNQFSLKLSSVTAADTAVYYCARGIEYQHFDYWGQGTLVTVSS VL: not shown | 366 |  | 234000
